Experimental findings from publication doi:10.1101/2022.01.05.474964 (bioRxiv, 2022) are described below.

Usually stoichiometry N stands for the number of molecules, sites or subunits per partner or assembly.

This data set concerns the molecule itself. The experiment in a line: SEC-MALS. On the technique in general: In gel filtration, larger molecules generally elute earlier.

B1: full-length human BicD2 isoform 2 (natural protein, UniProt Q8TD16-2 1-855, looked up)
chain: MSAPSEEEEYARLVMEAQPEWLRAEVKRLSHELAETTREKIQAAEYGLAVLEEKHQLKLQFEELEVDYEAIRSEMEQLKEAFGQAHTNHKKVAADGESREESLIQESASKEQYYVRKVLELQTELKQLRNVLTNTQSENERLASVAQELKEINQNVEIQRGRLRDDIKEYKFREARLLQDYSELEEENISLQKQVSVLRQNQVEFEGLKHEIKRLEEETEYLNSQLEDAIRLKEISERQLEEALETLKTEREQKNSLRKELSHYMSINDSFYTSHLHVSLDGLKFSDDAAEPNNDAEALVNGFEHGGLAKLPLDNKTSTPKKEGLAPPSPSLVSDLLSELNISEIQKLKQQLMQMEREKAGLLATLQDTQKQLEHTRGSLSEQQEKVTRLTENLSALRRLQASKERQTALDNEKDRDSHEDGDYYEVDINGPEILACKYHVAVAEAGELREQLKALRSTHEAREAQHAEEKGRYEAEGQALTEKVSLLEKASRQDRELLARLEKELKKVSDVAGETQGSLSVAQDELVTFSEELANLYHHVCMCNNETPNRVMLDYYREGQGGAGRTSPGGRTSPEARGRRSPILLPKGLLAPEAGRADGGTGDSSPSPGSSLPSPLSDPRREPMNIYNLIAIIRDQIKHLQAAVDRTTELSRQRIASQELGPAVDKDKEALMEEILKLKSLLSTKREQITTLRTVLKANKQTAEVALANLKSKYENEKAMVTETMMKLRNELKALKEDAATFSSLRAMFATRCDEYITQLDEMQRQLAAAEDEKKTLNSLLRMAIQQKLALTQRLELLELDHEQTRRGRAKAAPKTKPATPSVSHTCACASDRAEGTGLANQVFCSEKHSIYCD
For B1, the “stoichiometry N” value came out at 2.
